# The nanobody polyreactivity screen of Harvey et al. (2022)
# Test: yeast display, Sf9 membrane polyspecificity reagent, FACS + sequencing; frameworks hold sequencing errors
# How it was run: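 Sorting gates, low and high (top ~1%), were placed on anti-HA fluorescence to track expression and on streptavidin fluorescence to track reagent binding. A clone's polyreactivity label is taken from the gate it came out of. The reagent was 10% biotinylated, detergent-solubilized Sf9 membrane, applied for 1 hour at 4 °C to galactose-induced yeast display cells.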
row,Sequence,polyreactivity (PSR sort gate)
1,QVQLVESGGGLVQAGGSLRLSCAASGSNFSSNAMGWYRQAPGKERELVAAISRSGVTTYYADSVKGRFTISRDNAKNTVYLQMNSLKPEDTAVYYCAGQPYSRLYGRYRGFQYKYVYWGHGTQVTVSS,low polyreactivity
2,QVQLVESGGGLVQAGGSLRLSCAASGSNFTNYAMGWYRPAPGKERELVARITSSGSRTYYADSVKGRFTISRDNAKNTVYLQMNSLKPEDTAVYYCNAETYYLRYGRGYRRFDYWGQGTQVTVSS,high polyreactivity
3,QVQLVESGGGLVQAGGSLRLSCAASGSNFVNNAMGWYRQAPGKERELVASITWSGGRTYYADSVKGRFTISRDNAKNTVDLQMNSLKPEDTAVYYCNKRQYSRTFRYGYWGQGTEVTVSS,high polyreactivity
4,QVQLVESGGGLVQAGGSLRLSCAASGSNFVRNTMGWYRQAPGKESELVATISSGGRTNYADSVKGRFTISRDNAKNTVYLQLNSLKPEDTAVYYCNRPRWYGGSPYYYWGQGTQVTVSS,high polyreactivity
5,QVQLVESGGGLVQAGGSLRLSCAASGSNFYFYAMGWYRHAPGKERELVAGITSGGITYYADSVKGRFTISRDNAKNTVYLQLNSLKPEDTAVYYCAADFTRRWSKSTPFDSWGQGTQVTVSS,high polyreactivity
6,QVQLVESGGGLVQAGGSLRLSCAASGSNFYLYAMGWYRQAPGKERELVAAITSIGGSTYADSVKGRFTISRDNAKNTVYLQMNSLKPEDTAVYYCNTDEYPLTVQVQYYYWGQGTQVTVSS,low polyreactivity
7,QVQLVESGGGLVQAGGSLRLSCAASGSNIDGYAMGRYRQAPGKEREFLAAISFSSASTYYADSVKGRFTISRDNAKNSVYLQMNSLKPEDTAVYYCNADFFESGGSIEYDSSGQGTQVTVSS,low polyreactivity
8,QVQLVESGGGLVQAGGSLRLSCAASGSNIRSNAMGWYRQAPGKERELVAAISRTGGRTYYADSVKGRFTISRDNEKNTVYLQMKSLKPEYTAVYYCAASSSGSGGYWGQCTQVTVSS,high polyreactivity
9,QVQLVESGGGLVQAGGSLRLSCAASGSNLVWNAMGWYRQAPGKERELVAAIDRDTTTYYADSVKGRFTISRDNAKNTVYLQMNSLKPEDTAVYYCAAESWYYLYDYWGQGTQVTVSS,high polyreactivity
10,QVQLVESGGGLVQAGGSLRLSCAASGSNLYKYAMGWYRPAPGKERELVASITWSDGNTNYADSVKGRFTISRHNAKNTVYLQMNSLKPEDTAVYYCAADWRYILRGDDYWGQGTQVTVSS,low polyreactivity
11,QVQLVESGGGLVQAGGSLRLSCAASGSNSPTMLMGGYRKAPGKERELVAAISGGGRTNYADSVKGRFTISRDNAKNTVYLQMNSLKPEETAVYYCAAGGYYQRTRGDWGQGTQVTVSS,high polyreactivity
12,QVQLVESGGGLVQAGGSLRLSCAASGSNSYFNAMGWYRQAPGKERELVAAITSGGSTYYADSVKGRFTISRDNAKNTVYLQMNSLKPEDTAVYYCNAPLEWGVYAAQNWDDGYWGQGTQVTVSS,low polyreactivity
13,QVQLVESGGGLVQAGGSLRLSCAASGSNVPSYAMGWYRQAPGKERELVAAINSGGGTNYADSVKGRFTISRDNAKNTVYVQMNSLKPEDTAVYYCAKSRYDYTKTEGGYWGQGTQVTVSS,low polyreactivity
14,QVQLVESGGGLVQAGGSLRLSCAASGSNVYIYAMGWYRQAPGKERELVASINSGGSTNYADSVKGRFTISRDNAKNTVYLQMNSLKPEDTAVYYCNADVYDTYSPLGYYYWGQGTQVTVSS,low polyreactivity
15,QVQLVESGGGLVQAGGSLRLSCAASGSPFGFNAMGWYRQAPGKERELVAAISRSGTRTYYADSVKGRFTISRDNEKNTVYLQMNSQKPEDTAVYFCAADSTLSRYDYWGQGTQVTVSS,high polyreactivity
16,QVQLVESGGGLVQAGGSLRLSCAASGSPFLTNAMGWDRQAPGKERELVAAITWSTGSTYYADSVKGRFTISRDNAKNTVYLQMNSLKPEDTAVYYCNARSEVSYWWGGYWGEGTQVTVSS,low polyreactivity
17,QVQLVESGGGLVQAGGSLRLSCAASGSPFNYYAMGSYRQAPGKERELVAGINRGGSTNYADSVKGRFTISRDNAKNTVYLQMNSLKPEDTAVYYCAVRAYRWRSTLGLYYWGQGTQVTVSS,high polyreactivity
18,QVQLVESGGGLVQAGGSLRLSCAASGSPFRTYAIGWYRQAPGKERELVASIDSTGSTNYADSVKGRFTISRDNAKNTVYLQMNCLKAEVTAVYYCAAETYSYPPFYAYDYWGQGTQVTVSS,low polyreactivity
19,QVQLVESGGGLVQAGGSLRLSCAASGSPFVDNDMGWSRQAPGKDRELVAAAITARGGSTYYADSVKGRFTISRDNAKNTVYLQMNSLKPEDTAVYYCAAGRPGELDYWGQGTQVTVSS,low polyreactivity
20,QVQLVESGGGLVQAGGSLRLSCAASGSRFSHYSMGWYRQAPGKERDLVATITGTGVRTSYADSVKGRFTISRDNAKNTVYLQMNSLKAEDTAVYYCAADGDYDPNLYGYWGQGTQVTVSS,low polyreactivity
21,QVQLVESGGGLVQAGGSLRLSCAASGSSFDDYTMVWYRQAPGKERELVADSTESGGTTYADSVKGRFTISRDNAKNTVYLQMYSLKPVDTAVYYCNADIYISPLVQVSKGYDYWGQGTQVTVSS,low polyreactivity
22,QVQLVESGGGLVQAGGSLRLSCAASGSSFNSYAMGWYRQAPGKERELVASITRGGSTYYADSVKGRFTISRDNAKTTVYLQMNSLKPEDTAVYYCAARFTQHNYWAMDYRGQGTQVTVSS,high polyreactivity

row,Sequence,polyreactivity (PSR sort gate)
1,QVQLVESGGGLVQAGGSLRLSCAASGSSFPRYAMAWYTPAPGKERELVAAISSGGSTYYADSVKGRFTISRDNAKNTVYLQMNSLKPEDTAVYYCTARRSRSRYDYWGQVTQVTVSS,high polyreactivity
2,QVQLVESGGGLVQAGGSLRLSCAASGSSFRRNAMGWYRQAPGKERELVAAITRGGGSTYYADSVKGRFTISRDNAKNTVYLQMNSLKPEDNAVYYCAAQISATRETMDYWGQGTQVTVSS,high polyreactivity
3,QVQLVESGGGLVQAGGSLRLSCAASGSSFRVYAMGWYRQAPGKERELVAAISGSGGSTYYADSVKGRFTISRDNAKNTVYLQMNSLKPVDTAVYYCAARSWYTEYYWGQCTQVTVSS,high polyreactivity
4,QVQLVESGGGLVQAGGSLRLSCAASGSSFSYYTMGWYRQAPGKERELVAAITSGGPTNYADSVKGRFTISRDNAKKTVYLQMNSLKPEDTAVYYCAADLYYGWGYYYWGQGTQVTVSS,low polyreactivity
5,QVQLVESGGGLVQAGGSLRLSCAASGSSFTGNAMGWYRQAPGKERELVASINGSSGSTYYADSVKGRFTISRDNAKNTVYLEMNSLKPEDTAVYYCNADTYYVEYTAFDYWGQGTQVTVSS,low polyreactivity
6,QVQLVESGGGLVQAGGSLRLSCAASGSSFVLYAMGWYRQAPGKERELVAAISLSVGSTYYADSVKGRFTISRDNAKNTVYLQMNSLKPEDTAVYDCNARSSIVSYYWYHYWTREFDYWGQGTQVTVSS,low polyreactivity
7,QVQLVESGGGLVQAGGSLRLSCAASGSSFYDNAMGWYRQAPAKERELVAAITWDGDGTYYADSVKGRFTISRDNAKNTVYLQMNSLKPEDTAVYYCAADYYLVGFDYYYWYGYWGQGTQVTVSS,low polyreactivity
8,QVQLVESGGGLVQAGGSLRLSCAASGSSIYVYVMGWYRQAPGKERELVAVIDWRGGSTYYADSVKGRFTISRDNAKNTVYLQMNSLKPEDSSVYYCNKVAQFYYKLPYYKERDWGQGTQVTVSS,low polyreactivity
9,QVQLVESGGGLVQAGGSLRLSCAASGSSKLRLWDGIDRRLGKKGSWLPLFVLVVLRNYADSVKGRFTISRDNAKNTVYLQMNSLKPEDTAVYYCAATPIGSGGWGDYWGQGTQVTVSS,low polyreactivity
10,QVQLVESGGGLVQAGGSLRLSCAASGSSLTRNDMGWHRLAPGKERELVAAISFSGSDTYYADSVKGRFTISRDNAKNTVYLQMNSLKPEDTAVYYCAAEYGGYSKYLFIGRYYWGQGTQVTVSS,low polyreactivity
11,QVQLVESGGGLVQAGGSLRLSCAASGSSSRRMIMGRYRQAPGKERELVAAISGSGGSTYYADSVKGRFTISRDNAKNTVYLQMNSLKPEDTAVYYCAAVLQSCYGYEYWGQGTQVTVSS,high polyreactivity
12,QVQLVESGGGLVQAGGSLRLSCAASGSTFAANAMGWYRQAPGKERELVAAMTSSGGSTYYADSVKGRFTISRDNAKNTVYLQMNSLKPEDTAVYYCNKDIERYVRIYDSWGQGTQVTVSS,low polyreactivity
13,QVQLVESGGGLVQAGGSLRLSCAASGSTFAANAMGWYRQAPGKERELVAVIRRGGSTTYADSVKGRFTISRDNAKNTVYLQMNSLKPEDTAVYYCHARVTLGRPLFTYLVRYEYWGQGTQVTVSS,high polyreactivity
14,QVQLVESGGGLVQAGGSLRLSCAASGSTFADNAMGWDRQAPGKERELVAAISSDGSTNYADSVKGRFTISRDNAKNTVYLQMNSLKPEDTAVYYCNADGVYLGYPVVPPEGDYWGQGTQVTVSS,low polyreactivity
15,QVQLVESGGGLVQAGGSLRLSCAASGSTFADNAMGWYRQAPGKERELVASISSSATSTYYADSVKGRFTISRDNAKNTVYLQMNSLKPEDSAVYYCSKGRPWYRGDFWGQGTQVTVSS,low polyreactivity
16,QVQLVESGGGLVQAGGSLRLSCAASGSTFAGNAMGWYRKAPGKERELVAAITFSGGRTDYADSVKGRFTISRDNAKNTVYLQMNSLNPEDTSVYYCAAPADDTVHYQNYYWGQGTQVTVSS,low polyreactivity
17,QVQLVESGGGLVQAGGSLRLSCAASGSTFAGNAMGWYRQAPGKERELVAAIDSSTGSTYYADSVKGRFTISRDNAKNTVYLQMNSLKPEDTAVYYCAAGYYWQYTSSSAQYAYDYWGQGTQVTVSS,low polyreactivity
18,QVQLVESGGGLVQAGGSLRLSCAASGSTFAGNAMGWYRQAPGKERELVAAIDSSTGSTYYSDSVKGRFTISRDNAKNTVYLQMNSLKPEDTSVYYCNKTSVLVKLDYWGQGTQVTVSS,low polyreactivity
19,QVQLVESGGGLVQAGGSLRLSCAASGSTFAGNAMGWYRQAPGKERELVAAISSGDRTYYADSVKGRFIISRDNAKNTVYLQMNSLKPEDTAVYYCAAGLYLQGPFDYWGQGTQVTVSS,low polyreactivity
20,QVQLVESGGGLVQAGGSLRLSCAASGSTFAGNAMGWYRQAPGTDRELVAAIDSSTGSTYYADSVKGRYTISRDNAKNTVYLHMNSLKPEDTAVYYCNKTSFLVTLDYWGQGTQVTVSS,low polyreactivity
21,QVQLVESGGGLVQAGGSLRLSCAASGSTFAGYAMGWYRQAPGKERELVAAISRGGRTYYADSVKGRFTISRDNAKNTVYLQMNSLKPEDTAVYYCAKYSAWYTYTYDYWGQGTQVTVSS,high polyreactivity
